Test [1] has as its target T1, TGF-β1蛋白 (UniProt P01137 279-390). Kind of test: cell-based or functional assay.
A further test concerns the target T2, VEGF-A165 (UniProt P15692-4 27-191).
T2 construct: Isoform VEGF-A165; also called VEGF蛋白
Put plainly: ELISA, VEGF coated at 100 ng/well, HRP goat anti-human Fab detection.

Test [2] addresses T1, TGF-β1蛋白. Put plainly: ELISA, TGF-β1 coated at 100 ng/well, HRP goat anti-human Fab detection.

T1 sequence (P01137 279-390 limits assumed): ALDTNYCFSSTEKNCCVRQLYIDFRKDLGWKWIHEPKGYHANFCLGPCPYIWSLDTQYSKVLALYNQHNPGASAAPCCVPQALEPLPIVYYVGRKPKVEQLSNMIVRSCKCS
T2 sequence (P15692 other isoform, or with tags, fused parts or gaps limits assumed): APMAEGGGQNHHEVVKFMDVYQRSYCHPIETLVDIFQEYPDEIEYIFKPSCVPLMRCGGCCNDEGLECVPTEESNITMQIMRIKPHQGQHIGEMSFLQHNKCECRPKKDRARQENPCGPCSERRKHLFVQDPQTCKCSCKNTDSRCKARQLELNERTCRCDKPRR

B1: 抗TGF-β单抗12.7 (antibody, human IgG4 S228P, kappa, V domains shown)
VH: QVQLVQSGAEVKKPGASVKVSCKASGYTFTSEWMNWVRQAPGQGLEWMGQIFPALGSTNYNEMYEGRVTMTTDTSTSTAYMELRSLRSDDTAVYYCARGIGNYALDAMDYWGQGTLVTVSS
VL: DIQMTQSPSSLSASVGDRVTITCRASESVDFYGNSFMHWYQQKPGKAPKLLIYLASNLESGVPSRFSGSGSGTDFTLTISSLQPEDFATYYCQQNIEDPLTFGGGTKVEIKR
notes: also called mAb127
As to B1, the “SMAD3报告基因抑制实验 IC50” value with TGF-β1蛋白 [1] was 0.337 nM. For the same molecule, the binding result in the test with VEGF-A165 is “no binding (tested: 200nM)”. The same molecule displayed a concentration giving a half-maximal response (EC50) in the test with TGF-β1蛋白 [2] of 0.202 nM.
